System: Escherichia coli TOP10
Assay: shrunken log2 fold change of peptide-encoding DNA abundance (4.5 h post-induction vs induction); higher = less antimicrobial activity (less host growth inhibition)
Conditions: time post-induction: 4.5 h; library: site-saturation at positions 5, 18, 19, 20
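Note: peptides expressed intracellularly from a pBAD plasmid library in pooled LB shake-flask culture, induced with 0.3% L-arabinose, DNA abundance read by NGS, three biological replicates, DESeq2 with apeglm shrinkage.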

Row | Sequence | shrunken log2 fold change
1 | RRIRDRPPRLPRPRPRPQDQPRP | -0.144
2 | RRIRFRPPRLPRPRPRPGTYPRP | -0.851
3 | RRIRKRPPRLPRPRPRPWSEPRP | 0.00538
4 | RRIRVRPPRLPRPRPRPRDHPRP | 0.172
5 | RRIRTRPPRLPRPRPRPPEHPRP | 0.0826
6 | RRIRNRPPRLPRPRPRPLWYPRP | -0.619
7 | RRIRYRPPRLPRPRPRPSRAPRP | -0.113
8 | RRIRERPPRLPRPRPRPCNHPRP | -0.567
9 | RRIRQRPPRLPRPRPRPWCIPRP | 0.0342
10 | RRIRQRPPRLPRPRPRPWFRPRP | -0.145
11 | RRIRSRPPRLPRPRPRPLKEPRP | 0.176
12 | RRIRNRPPRLPRPRPRPWRLPRP | 0.0636
13 | RRIRLRPPRLPRPRPRPLVQPRP | -0.0853
14 | RRIRMRPPRLPRPRPRPKPSPRP | 1.4
15 | RRIRTRPPRLPRPRPRPLLVPRP | -0.119
16 | RRIRNRPPRLPRPRPRPMFVPRP | 0.134
17 | RRIRIRPPRLPRPRPRPEYMPRP | -1.14
18 | RRIRTRPPRLPRPRPRPNVRPRP | 0.075
19 | RRIRARPPRLPRPRPRPIFEPRP | 0.125
20 | RRIRCRPPRLPRPRPRPNMCPRP | -0.222
21 | RRIRVRPPRLPRPRPRPRNEPRP | 0.115
22 | RRIRCRPPRLPRPRPRPGWSPRP | -0.0169
23 | RRIRLRPPRLPRPRPRPAHFPRP | -0.197
24 | RRIRMRPPRLPRPRPRPGLMPRP | 0.518
25 | RRIRKRPPRLPRPRPRPLYWPRP | 0.149

Row | Sequence | shrunken log2 fold change
26 | RRIRIRPPRLPRPRPRPRDGPRP | 0.575
27 | RRIRDRPPRLPRPRPRPRDGPRP | 0.81
28 | RRIRARPPRLPRPRPRPHEWPRP | 0.311
29 | RRIRWRPPRLPRPRPRPHTKPRP | 0.0624
30 | RRIRFRPPRLPRPRPRPYEYPRP | -0.488
31 | RRIRVRPPRLPRPRPRPGEVPRP | 0.101
32 | RRIRQRPPRLPRPRPRPHMNPRP | -0.76
33 | RRIRPRPPRLPRPRPRPIVSPRP | -0.117
34 | RRIRSRPPRLPRPRPRPVMNPRP | 0.0346
35 | RRIRGRPPRLPRPRPRPRKKPRP | 0.774
36 | RRIRRRPPRLPRPRPRPSHPPRP | 0.167
37 | RRIRWRPPRLPRPRPRPYRHPRP | -0.0902
38 | RRIRQRPPRLPRPRPRPYLTPRP | -0.209
39 | RRIRFRPPRLPRPRPRPPVAPRP | 0.987
40 | RRIRHRPPRLPRPRPRPVNWPRP | 0.18
41 | RRIRRRPPRLPRPRPRPAHNPRP | 0.344
42 | RRIRHRPPRLPRPRPRPNAKPRP | -0.117
43 | RRIRQRPPRLPRPRPRPMYPPRP | -0.329
44 | RRIRSRPPRLPRPRPRPEKNPRP | 0.312
45 | RRIRIRPPRLPRPRPRPRQHPRP | -0.199
46 | RRIRNRPPRLPRPRPRPSFSPRP | -0.322
47 | RRIRVRPPRLPRPRPRPDCHPRP | -0.296
48 | RRIRGRPPRLPRPRPRPKCTPRP | 0.978
49 | RRIRIRPPRLPRPRPRPWYYPRP | -0.00149
50 | RRIRGRPPRLPRPRPRPRDSPRP | 0.257

Row | Sequence | shrunken log2 fold change
51 | RRIRPRPPRLPRPRPRPKNCPRP | -0.238
52 | RRIRMRPPRLPRPRPRPEKEPRP | -0.0085
53 | RRIRTRPPRLPRPRPRPGTIPRP | -0.0982
54 | RRIRIRPPRLPRPRPRPESSPRP | -0.0745
55 | RRIRLRPPRLPRPRPRPQPKPRP | 0.172
56 | RRIRIRPPRLPRPRPRPQMHPRP | -0.494
57 | RRIRGRPPRLPRPRPRPHSHPRP | 0.303
58 | RRIRCRPPRLPRPRPRPMCPPRP | -0.312
59 | RRIRARPPRLPRPRPRPWWMPRP | 0.0201
60 | RRIRKRPPRLPRPRPRPGTYPRP | -0.0508
61 | RRIRLRPPRLPRPRPRPLSIPRP | -0.722
62 | RRIRYRPPRLPRPRPRPLSAPRP | -0.542
63 | RRIRNRPPRLPRPRPRPVNWPRP | -0.0184
64 | RRIRGRPPRLPRPRPRPIWKPRP | 0.155
65 | RRIRIRPPRLPRPRPRPPQMPRP | -0.0135
66 | RRIRPRPPRLPRPRPRPLIRPRP | -0.218
67 | RRIRWRPPRLPRPRPRPMDEPRP | 0.0255
68 | RRIRYRPPRLPRPRPRPSQVPRP | -0.518
69 | RRIRSRPPRLPRPRPRPQLLPRP | -0.182
70 | RRIRHRPPRLPRPRPRPNMRPRP | 0.0719
71 | RRIRKRPPRLPRPRPRPHPHPRP | 2.25
72 | RRIRGRPPRLPRPRPRPDIEPRP | 0.735
73 | RRIRPRPPRLPRPRPRPMWNPRP | -0.216
74 | RRIRCRPPRLPRPRPRPFSYPRP | -0.947
75 | RRIRDRPPRLPRPRPRPKEGPRP | 0.32

Row | Sequence | shrunken log2 fold change
76 | RRIRIRPPRLPRPRPRPIHVPRP | 0.0502
77 | RRIRPRPPRLPRPRPRPKISPRP | -0.0927
78 | RRIRERPPRLPRPRPRPWEQPRP | -0.131
79 | RRIRSRPPRLPRPRPRPCLGPRP | -0.127
80 | RRIRNRPPRLPRPRPRPSHKPRP | -0.291
81 | RRIRPRPPRLPRPRPRPIQIPRP | -0.119
82 | RRIRERPPRLPRPRPRPWFWPRP | 0.061
83 | RRIRTRPPRLPRPRPRPVHMPRP | -0.123
84 | RRIRHRPPRLPRPRPRPDRWPRP | 0.255
85 | RRIRMRPPRLPRPRPRPEQPPRP | 0.395
86 | RRIRSRPPRLPRPRPRPPEIPRP | -0.19
87 | RRIRHRPPRLPRPRPRPKSLPRP | -0.0347
88 | RRIRPRPPRLPRPRPRPCYEPRP | -0.195
89 | RRIRYRPPRLPRPRPRPHEVPRP | -0.0317
90 | RRIRWRPPRLPRPRPRPDAAPRP | 2.23
91 | RRIRPRPPRLPRPRPRPLFAPRP | 0.206
92 | RRIRVRPPRLPRPRPRPRVGPRP | 0.655
93 | RRIRTRPPRLPRPRPRPDIHPRP | -0.357
94 | RRIRTRPPRLPRPRPRPADIPRP | -0.0781
95 | RRIRYRPPRLPRPRPRPKRHPRP | -0.159
96 | RRIRDRPPRLPRPRPRPFRKPRP | -0.0314
97 | RRIRNRPPRLPRPRPRPCWDPRP | 0.125
98 | RRIRERPPRLPRPRPRPYSAPRP | -0.269
99 | RRIRHRPPRLPRPRPRPVCPPRP | -0.0334
100 | RRIRNRPPRLPRPRPRPISRPRP | -0.612

Row | Sequence | shrunken log2 fold change
101 | RRIRNRPPRLPRPRPRPEGYPRP | -0.169
102 | RRIRDRPPRLPRPRPRPAFSPRP | -0.0405
103 | RRIRQRPPRLPRPRPRPRRPPRP | 0.472
104 | RRIRHRPPRLPRPRPRPFAQPRP | -0.163
105 | RRIRDRPPRLPRPRPRPTGGPRP | 0.166
106 | RRIRKRPPRLPRPRPRPSYNPRP | -0.397
107 | RRIRARPPRLPRPRPRPMPKPRP | 0.411
108 | RRIRVRPPRLPRPRPRPCERPRP | -0.00992
109 | RRIRQRPPRLPRPRPRPARPPRP | 0.516
110 | RRIRMRPPRLPRPRPRPAILPRP | 0.467
111 | RRIRPRPPRLPRPRPRPYSEPRP | 0.0371
112 | RRIRDRPPRLPRPRPRPDKMPRP | 0.0425
113 | RRIRARPPRLPRPRPRPGDWPRP | 0.8
114 | RRIRSRPPRLPRPRPRPSRHPRP | 0.0757
115 | RRIRIRPPRLPRPRPRPPGIPRP | -0.147
116 | RRIRTRPPRLPRPRPRPIRAPRP | -0.0672
117 | RRIRSRPPRLPRPRPRPVCLPRP | 0.0459
118 | RRIRCRPPRLPRPRPRPSYWPRP | -0.71
119 | RRIRARPPRLPRPRPRPVFFPRP | 0.448
120 | RRIRWRPPRLPRPRPRPHQDPRP | 0.134
121 | RRIRARPPRLPRPRPRPVSWPRP | 0.813
122 | RRIRNRPPRLPRPRPRPVETPRP | 0.157
123 | RRIRTRPPRLPRPRPRPDTCPRP | -0.0125
124 | RRIRPRPPRLPRPRPRPFPVPRP | 0.00381
125 | RRIRERPPRLPRPRPRPILFPRP | -0.57

Row | Sequence | shrunken log2 fold change
126 | RRIRMRPPRLPRPRPRPGSCPRP | 0.29
127 | RRIRERPPRLPRPRPRPHNCPRP | -0.417
128 | RRIRCRPPRLPRPRPRPTFHPRP | -0.366
129 | RRIRCRPPRLPRPRPRPWVEPRP | -0.689
130 | RRIRGRPPRLPRPRPRPQRFPRP | 0.139
131 | RRIRHRPPRLPRPRPRPSSWPRP | -0.0281
132 | RRIRGRPPRLPRPRPRPVAMPRP | 1.02
133 | RRIRLRPPRLPRPRPRPKFIPRP | -0.304
134 | RRIRVRPPRLPRPRPRPAPHPRP | 0.286
135 | RRIRQRPPRLPRPRPRPLHIPRP | -0.423
136 | RRIRVRPPRLPRPRPRPEFKPRP | 0.0262
137 | RRIRIRPPRLPRPRPRPAKCPRP | -0.126
138 | RRIRPRPPRLPRPRPRPVYTPRP | -0.234
139 | RRIRYRPPRLPRPRPRPCIFPRP | -0.559
140 | RRIRRRPPRLPRPRPRPEKPPRP | 0.376
141 | RRIRWRPPRLPRPRPRPQDSPRP | 0.0627
142 | RRIRQRPPRLPRPRPRPVWRPRP | 0.205
143 | RRIRLRPPRLPRPRPRPELYPRP | -0.0383
144 | RRIRIRPPRLPRPRPRPTGLPRP | 0.375
145 | RRIRHRPPRLPRPRPRPYKWPRP | -0.0842
146 | RRIRCRPPRLPRPRPRPEEFPRP | 0.0238
147 | RRIRYRPPRLPRPRPRPKYKPRP | -0.78
148 | RRIRWRPPRLPRPRPRPEYGPRP | 0.222
149 | RRIRLRPPRLPRPRPRPVFLPRP | -0.207
150 | RRIRWRPPRLPRPRPRPEMFPRP | 0.274
